Measurements as given in US20010041670A1 (published 2001).
Blank lines part the entries; values can stand above or below the binder they belong to.

Tests used:
[1] = biological target: T1, Thrombospondin-1 (TSP-1) (human, UniProt P07996 19-1170); experiment: cell-based or functional assay
[2] = biological target: T1, Thrombospondin-1 (TSP-1); experiment: solid phase competition: 125I-TSP-1 binding to immobilized HRGP
Experimental: Solid phase binding assays were performed as described (18). […] Non-specific binding was determined by carrying out binding in the presence of excess unlabeled ligand.

T1 sequence (P07996 19-1170): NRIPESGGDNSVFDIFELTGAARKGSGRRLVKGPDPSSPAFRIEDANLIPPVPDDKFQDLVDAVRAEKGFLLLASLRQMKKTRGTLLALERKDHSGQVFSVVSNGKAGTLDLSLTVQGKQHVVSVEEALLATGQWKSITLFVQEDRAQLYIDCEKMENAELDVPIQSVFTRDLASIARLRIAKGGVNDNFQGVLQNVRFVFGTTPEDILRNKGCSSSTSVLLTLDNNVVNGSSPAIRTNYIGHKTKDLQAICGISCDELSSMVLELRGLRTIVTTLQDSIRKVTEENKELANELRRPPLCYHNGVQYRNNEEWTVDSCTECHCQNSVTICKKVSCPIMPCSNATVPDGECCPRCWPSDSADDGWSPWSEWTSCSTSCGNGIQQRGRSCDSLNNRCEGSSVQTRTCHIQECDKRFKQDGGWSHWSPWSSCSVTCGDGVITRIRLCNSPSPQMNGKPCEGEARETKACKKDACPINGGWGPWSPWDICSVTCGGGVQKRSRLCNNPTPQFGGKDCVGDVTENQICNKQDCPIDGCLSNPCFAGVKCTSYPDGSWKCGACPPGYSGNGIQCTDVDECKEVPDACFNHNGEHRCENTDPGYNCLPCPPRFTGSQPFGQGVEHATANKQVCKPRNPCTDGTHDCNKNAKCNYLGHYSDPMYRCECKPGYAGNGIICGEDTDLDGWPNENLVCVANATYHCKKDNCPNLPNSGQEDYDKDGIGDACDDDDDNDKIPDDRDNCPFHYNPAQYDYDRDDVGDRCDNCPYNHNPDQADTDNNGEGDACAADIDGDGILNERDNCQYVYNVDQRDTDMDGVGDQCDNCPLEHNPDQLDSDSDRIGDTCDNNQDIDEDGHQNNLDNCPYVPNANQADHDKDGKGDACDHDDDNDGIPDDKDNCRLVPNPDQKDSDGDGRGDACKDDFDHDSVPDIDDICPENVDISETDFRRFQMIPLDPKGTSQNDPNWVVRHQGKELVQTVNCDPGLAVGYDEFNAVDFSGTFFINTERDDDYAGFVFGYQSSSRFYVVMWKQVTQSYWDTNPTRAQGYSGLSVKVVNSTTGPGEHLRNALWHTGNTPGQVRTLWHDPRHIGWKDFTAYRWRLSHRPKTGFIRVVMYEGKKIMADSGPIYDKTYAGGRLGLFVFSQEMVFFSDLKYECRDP

- area of neovascularization relative to bFGF alone, corneal assay, pellets with bFGF, TSP-1 and HRGP (100 ng, HRGP:TSP-1 molar ratio 3:1) [1]: 82.5%
B1: Histidine-rich glycoprotein (HRGP) (other, human, UniProt P04196 19-525, looked up)
chain: VSPTDCSAVEPEAEKALDLINKRRRDGYLFQLLRIADAHLDRVENTTVYYLVLDVQESDCSVLSRKYWNDCEPPDSRRPSEIVIGQCKVIATRHSHESQDLRVIDFNCTTSSVSSALANTKDSPVLIDFFEDTERYRKQANKALEKYKEENDDFASFRVDRIERVARVRGGEGTGYFVDFSVRNCPRHHFPRHPNVFGFCRADLFYDVEALDLESPKNLVINCEVFDPQEHENINGVPPHLGHPFHWGGHERSSTTKPPFKPHGSRDHHHPHKPHEHGPPPPPDERDHSHGPPLPQGPPPLLPMSCSSCQHATFGTNGAQRHSHNNNSSDLHPHKHHSHEQHPHGHHPHAHHPHEHDTHRQHPHGHHPHGHHPHGHHPHGHHPHGHHPHCHDFQDYGPCDPPPHNQGHCCHGHGPPPGHLRRRGPGKGPRPFHCRQIGSVYRLPPLRKGEVLPLPEANFPSFPLPHHKHPLKPDNQPFPQSVSESCPGKFKSGFPQVSMFFTHTFPK

- binding result [2]: no binding
B2: CD36 FP298-439 (other, UniProt P16671 298-439, looked up)
chain: KAFASPVENPDNYCFCTEKIISKNCTSYGVLDISKCKEGRPVYISLPHFLYASPDVSEPIDGLNPNEEEHRTYLDIEPITGFTLQFAKRLQVNLLVKPSEKIQVLKNLKRNYIVPILWLNETGTIGDEKANMFRSQVTGKIN
notes: also called GST-CD36 fusion protein; not shown: Glutathione-S-transferase fusion partner
